We go through two substances from publication PMC11266487.

This assay deals with angiotensin converting enzyme 2 (ACE2) (human (endogenous in BCi.NS1.1)) (UniProt Q9BYF1).
UniProt Q9BYF1, sequence (Q9BYF1 18-805): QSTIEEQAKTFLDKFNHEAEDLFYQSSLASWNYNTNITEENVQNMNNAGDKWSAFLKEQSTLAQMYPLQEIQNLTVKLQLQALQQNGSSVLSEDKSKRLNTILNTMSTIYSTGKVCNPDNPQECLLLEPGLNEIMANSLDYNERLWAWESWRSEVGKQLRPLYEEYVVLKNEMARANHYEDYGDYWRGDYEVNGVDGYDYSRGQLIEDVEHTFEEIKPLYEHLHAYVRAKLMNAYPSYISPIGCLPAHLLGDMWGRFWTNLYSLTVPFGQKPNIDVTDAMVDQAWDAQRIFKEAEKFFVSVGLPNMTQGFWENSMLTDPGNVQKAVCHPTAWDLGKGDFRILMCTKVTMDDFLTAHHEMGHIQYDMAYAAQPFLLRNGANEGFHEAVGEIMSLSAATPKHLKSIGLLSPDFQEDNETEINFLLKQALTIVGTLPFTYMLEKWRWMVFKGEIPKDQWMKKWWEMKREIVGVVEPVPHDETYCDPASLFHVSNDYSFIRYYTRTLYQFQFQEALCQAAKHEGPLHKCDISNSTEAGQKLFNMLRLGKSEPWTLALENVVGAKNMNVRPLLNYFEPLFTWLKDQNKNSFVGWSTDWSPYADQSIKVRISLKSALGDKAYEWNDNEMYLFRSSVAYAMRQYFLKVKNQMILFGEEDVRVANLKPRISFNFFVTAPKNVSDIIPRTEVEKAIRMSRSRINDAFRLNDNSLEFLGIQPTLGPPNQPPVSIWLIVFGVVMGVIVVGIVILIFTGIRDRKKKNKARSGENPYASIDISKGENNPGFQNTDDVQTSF

The substance “Wuhan-Hu-1 [S1S2] spike protein (natural protein)” returned a Ki for reduction of cAMP-activated CFTR chloride channel activity (Ussing chamber, differentiated BCi.NS1.1 epithelia) of 0.446 µg/mL. As for “β-1.351 [S1S2] spike protein (natural protein)”, the figure is 0.21 µg/mL.
